Earlier results in US6823267B2, “Structural prediction of allosterism” (The Johns Hopkins University, priority 2000, dated 2004).

Biological target: glycerol kinase (Escherichia coli, UniProt P0A6F3)
Conditions: at 25° C.

glycerol kinase, sequence (P0A6F3 whole entry): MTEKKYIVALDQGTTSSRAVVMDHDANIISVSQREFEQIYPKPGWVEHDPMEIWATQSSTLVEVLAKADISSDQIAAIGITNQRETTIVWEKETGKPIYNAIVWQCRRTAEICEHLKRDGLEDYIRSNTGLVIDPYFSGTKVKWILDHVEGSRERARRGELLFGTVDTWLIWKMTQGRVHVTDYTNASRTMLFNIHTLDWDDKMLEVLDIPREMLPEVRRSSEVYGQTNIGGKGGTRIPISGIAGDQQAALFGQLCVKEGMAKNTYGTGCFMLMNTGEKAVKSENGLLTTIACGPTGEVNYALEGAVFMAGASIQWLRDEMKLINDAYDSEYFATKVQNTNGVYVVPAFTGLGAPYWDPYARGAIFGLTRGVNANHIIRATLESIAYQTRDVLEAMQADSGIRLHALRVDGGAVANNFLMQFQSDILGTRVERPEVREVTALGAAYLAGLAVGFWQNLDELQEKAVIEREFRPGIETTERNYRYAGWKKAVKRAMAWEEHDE

B1: IIAGlc: protein that is an allosteric inhibitor of the enzyme glycerol kinase (protein, UniProt P69783 2-169, looked up)
PTS system glucose-specific …: GLFDKLKSLVSDDKKDTGTIEIIAPLSGEIVNIEDVPDVVFAEKIVGDGIAIKPTGNKMVAPVDGTIGKIFETNHAFSIESDSGVELFVHFGIDTVELKGEGFKRIAEEGQRVKVGDTVIEFDLPLLEEKAKSTLTPVVISNMDEIKELIKLSGSVTVGETPVIRIKK
association constant of IIAGlc to glycerol kinase: ~10^5 M^−1
